From PMC2890523, “Identification of archaeal proteins that affect the exosome function in vitro”
Blank lines part the entries; values can stand above or below the molecule they belong to.

Legend:
[1] = biological target: PaCsl4-exosome (Pyrococcus abyssi)
[2] = biological target: PaRrp4-exosome (Pyrococcus abyssi) (UniProt Q9V120)
[3] = biological target: RNase PH ring (PaRrp41-PaRrp42 complex) (Pyrococcus abyssi)
[4] = biological target: PaCsl4-exosome (Pyrococcus abyssi); remark: listed apart in the source
[5] = biological target: PaRrp4-exosome (Pyrococcus abyssi) (UniProt Q9V120); remark: listed apart in the source
[6] = biological target: T1, PaRrp41;PaRrp42;PaCsl4 (Pyrococcus abyssi;Pyrococcus …, UniProt Q9V119;Q9V118;Q9V2M2 1-249;1-274;1-199, ||); assay: EMSA; no phosphate added; 1 pmol RNA in 20 ul; 20 mM Tris-HCl pH 8.0, 20 mM KCl, 2 mM MgCl2, 1 mM DTT, 100 ug/ml BSA, 0.8 U RNasin (or conditions of earlier work, ref 21), 37 C, 30 min; conditions: protein: recombinant;recombinant;recombinant; tags: pET29a vector;pAE vector;pET28a vector; chain copies: 3;3;3; label: 5'-32P; single strand
T1 sequence 1: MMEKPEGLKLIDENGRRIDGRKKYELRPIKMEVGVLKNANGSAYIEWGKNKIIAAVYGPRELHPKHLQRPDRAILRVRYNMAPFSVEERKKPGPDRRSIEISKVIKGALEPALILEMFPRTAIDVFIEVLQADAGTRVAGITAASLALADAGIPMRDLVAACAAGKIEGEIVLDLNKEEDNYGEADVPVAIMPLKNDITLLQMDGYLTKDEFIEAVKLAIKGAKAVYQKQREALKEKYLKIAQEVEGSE
T1 sequence 2: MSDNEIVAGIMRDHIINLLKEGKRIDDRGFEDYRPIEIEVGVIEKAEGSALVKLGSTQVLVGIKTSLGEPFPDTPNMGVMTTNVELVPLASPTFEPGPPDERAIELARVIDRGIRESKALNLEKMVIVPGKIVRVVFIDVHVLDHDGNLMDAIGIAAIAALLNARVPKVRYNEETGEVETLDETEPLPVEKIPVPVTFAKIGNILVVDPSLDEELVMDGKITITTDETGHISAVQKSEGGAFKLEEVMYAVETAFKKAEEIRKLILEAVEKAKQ
T1 sequence 3: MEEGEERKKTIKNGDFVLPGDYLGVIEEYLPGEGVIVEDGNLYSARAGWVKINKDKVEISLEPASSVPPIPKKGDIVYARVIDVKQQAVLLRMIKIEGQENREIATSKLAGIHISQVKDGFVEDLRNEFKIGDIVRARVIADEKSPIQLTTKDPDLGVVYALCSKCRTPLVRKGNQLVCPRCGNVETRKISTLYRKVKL

[7] = biological target: T2, PaSBDS (Pyrococcus abyssi, UniProt Q9V121 1-236); assay: EMSA; 200 pmol; smear, low stability complex; 1 pmol RNA in 20 ul; 20 mM Tris-HCl pH 8.0, 20 mM KCl, 2 mM MgCl2, 1 mM DTT, 100 ug/ml BSA, 0.8 U RNasin (or conditions of earlier work, ref 21), 37 C, 30 min; conditions: protein: recombinant; tags: pET-28a vector, Ni-NTA purified (His tag); label: 5'-32P; single strand
[8] = biological target: T3, PaRrp41;PaRrp42;PaRrp4 (Pyrococcus abyssi;Pyrococcus …, UniProt Q9V119;Q9V118;Q9V120 1-249;1-274;1-265, ||); assay: EMSA; no phosphate added; 9-fold vs PaCsl4-exosome; 1 pmol RNA in 20 ul; 20 mM Tris-HCl pH 8.0, 20 mM KCl, 2 mM MgCl2, 1 mM DTT, 100 ug/ml BSA, 0.8 U RNasin (or conditions of earlier work, ref 21), 37 C, 30 min; conditions: protein: recombinant;recombinant;recombinant; tags: pET29a vector;pAE vector;; chain copies: 3;3;3; label: 5'-32P; single strand
T3 sequence 1: T1 sequence 1
T3 sequence 2: T1 sequence 2
T3 sequence 3: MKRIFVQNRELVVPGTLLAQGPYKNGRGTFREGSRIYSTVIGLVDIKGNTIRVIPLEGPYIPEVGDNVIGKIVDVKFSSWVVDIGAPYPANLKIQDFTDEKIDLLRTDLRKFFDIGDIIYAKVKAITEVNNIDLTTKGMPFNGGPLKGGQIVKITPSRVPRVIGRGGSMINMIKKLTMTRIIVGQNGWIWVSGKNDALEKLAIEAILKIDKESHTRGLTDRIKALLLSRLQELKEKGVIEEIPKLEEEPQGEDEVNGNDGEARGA

[9] = biological target: T4, PaRrp41;PaRrp42 (Pyrococcus abyssi;Pyrococcus abyssi, UniProt Q9V119;Q9V118 1-249;1-274, |); assay: EMSA; no phosphate added; PaRrp4-exosome binds 3-fold more efficiently; some RNA degradation; 1 pmol RNA in 20 ul; 20 mM Tris-HCl pH 8.0, 20 mM KCl, 2 mM MgCl2, 1 mM DTT, 100 ug/ml BSA, 0.8 U RNasin (or conditions of earlier work, ref 21), 37 C, 30 min; conditions: protein: recombinant;recombinant; tags: pET29a vector;pAE vector; chain copies: 3;3; label: 5'-32P; single strand
T4 sequence 1: T1 sequence 1
T4 sequence 2: T1 sequence 2

[10] = biological target: T2, PaSBDS; assay: EMSA; 50-400 pmol; 1 pmol RNA in 20 ul; 20 mM Tris-HCl pH 8.0, 20 mM KCl, 2 mM MgCl2, 1 mM DTT, 100 ug/ml BSA, 0.8 U RNasin (or conditions of earlier work, ref 21), 37 C, 30 min; conditions: protein: recombinant, tags: pET-28a vector, Ni-NTA purified (His tag), label: 5'-32P
[11] = biological target: T1, PaRrp41;PaRrp42;PaCsl4; assay: EMSA; 10 mM NaH2PO4, 65 C, 15 min; 1 pmol RNA in 20 ul; 20 mM Tris-HCl pH 8.0, 20 mM KCl, 2 mM MgCl2, 1 mM DTT, 100 ug/ml BSA, 0.8 U RNasin (or conditions of earlier work, ref 21), 37 C, 30 min; conditions: protein: recombinant;recombinant;recombinant; tags: pET29a vector;pAE vector;pET28a vector; chain copies: 3;3;3; label: 5'-32P; can form intra- and inter-strand base pairs of low stability
[12] = biological target: T3, PaRrp41;PaRrp42;PaRrp4; assay: as above; conditions: protein: recombinant;recombinant;recombinant; tags: pET29a vector;pAE vector;; chain copies: 3;3;3; label: 5'-32P; can form intra- and inter-strand base pairs of low stability
[13] = biological target: T4, PaRrp41;PaRrp42; assay: EMSA; 10 mM NaH2PO4, 65 C, 15 min; less efficient than holo-exosomes; 1 pmol RNA in 20 ul; 20 mM Tris-HCl pH 8.0, 20 mM KCl, 2 mM MgCl2, 1 mM DTT, 100 ug/ml BSA, 0.8 U RNasin (or conditions of earlier work, ref 21), 37 C, 30 min; conditions: protein: recombinant;recombinant; tags: pET29a vector;pAE vector; chain copies: 3;3; label: 5'-32P; can form intra- and inter-strand base pairs of low stability

decrease in poly-rA binding by the exosome complex (EMSA, 1-20 pmol complex) in the presence of 100 pmol PaNip7 [1]: 20 fold | decrease in poly-rA binding by the exosome complex (EMSA, 1-20 pmol complex) in the presence of 100 pmol PaNip7 [2]: 40 fold | decrease in poly-rA binding by the exosome complex (EMSA, 1-20 pmol complex) in the presence of 100 pmol PaNip7 [3]: 3 fold | inhibition of the RNase activity on 14-mer poly-rA (1, 5 or 10 pmol complex, 65°C, 10 mM NaH2PO4) by 100 pmol PaNip7 [4]: 6.1 fold | inhibition of the RNase activity on 14-mer poly-rA (1, 5 or 10 pmol complex, 65°C, 10 mM NaH2PO4) by 100 pmol PaNip7 [5]: 3.8 fold
Molecule: PaNip7 (natural protein)

B1: poly-rA 14-mer (ssRNA)
RNA: AAAAAAAAAAAAAA
binding signal [6]: 9 fold less efficient than PaRrp4-exosome | binding result [7]: binds | binding signal [8]: 3 fold vs RNase PH ring | binding result [9]: binds

B2: poly-rC 13-mer (ssRNA)
RNA: CCCCCCCCCCCCC
binding result ([10]; single strand): no binding

B3: poly-rAU 21-mer (ssRNA)
RNA: UUAUUAUUUAUUUAUUAUUUA
binding result ([10]; can form intra- and inter-strand base pairs of low stability): binds | binding result [11]: binds | binding result [12]: binds | binding result [13]: binds
